Reference: US11866736B2, “Protein prostheses for mitochondrial diseases or conditions” (The General Hospital Corporation, priority 2015, dated 2024)

Legend:
[1] = Continuous assay of H2O2 production (Amplex Red/HRP/SOD); format: biochemical
Method: Reaction mixture contained: 50 mM NaPi pH 7.5, 150 mM NaCl buffer, 350 μM NADH, SOD 130U and 100 μM D-glucose at 37° C. At times indicated LbNOX and glucose oxidase were added. Glucose oxidase was used to validate the assay, since this enzyme produces H2O2 from oxygen and D-glucose. Rates on H2O2-forming activity of LbNOX were compared to rates of NADH disappearance in parallel experiments. It was estimated that around 1.7±0.3% of H2O2 is produced by LbNOX (n=4).
H2O2 production was monitored in a continuous assay followed by the increase in absorbance at 570 nm upon resorufin formation (ε570=54 mM^−1 cm^−1). It was shown previously that presence of NADH in the assay mixture results in the oxidation of AMPLEX® Red dye in the HRP-dependent manner and this process is greatly diminished by supplementation of superoxide dismutase (SOD) (Votyakova, et al., Arch. Biochem. Biophys., 431:138, 2004). […] The reaction was preincubated at 37° C. for 3 min before LbNOX was added (0.15 μg) and subsequently after LbNOX-dependent rate of H2O2 production was recorded, 4 U of glucose oxidase (Sigma, G2133-10 KU) was added (FIG. 6). […] H2O2-forming activity of LbNOX was compared to the total NADH oxidase activity which was determined in a parallel experiment when the decrease of NADH absorbance at 340 nm was monitored under identical conditions.

[2] = Enzyme-monitored turnover (stopped flow, FAD absorbance at 455 nm); format: biochemical
Method: The experiment was carried out by monitoring the time dependence of FAD oxidation state via its absorbance at 455 nm in 50 mM NaPi pH7.5 150 mM NaCl buffer at 4° C. Air-saturated LbNOX (1.9, 2.9, 5.6 and 9.18 μM FAD active sites after mixing) and air-saturated solution of NADH (2 mM after mixing). The traces at 455 nm are treated as records of the rate of catalysis as a continuous function of the concentration of O2 (the limiting substrate).
The reaction of LbNOX with oxygen was studied by the enzyme-monitored turnover method (Gibson, et al., J. Biol. Chem., 239:3927, 1964; and Tapley, et al., J. Biol. Chem., 282:10263, 2007). Rapid reaction studies were carried out at 4° C. in a SX20 stopped flow instrument (Applied Photophysics, UK) equipped with a diode array detector. To follow the redox state of the FAD cofactor, LbNOX enzyme (1.9, 2.9, 5.6 and 9.18 μM FAD active sites after mixing) was mixed with NADH (2 mM after mixing), both prepared in air-saturated assay buffer (50 mM Na2HPO4, pH 7.5, 150 mM NaCl) and absorbance at 455 nm was monitored over time. Solubility of oxygen at 4° C. was calculated from oxygen solubility table at corresponding salinity of the assay buffer which is ˜380 μM. Results represent (n=3) independent experiments. The traces at 455 nm reflect the conversion of oxidized to reduced enzyme forms and are treated as previously described (Gibson, et al., J. Biol. Chem., 239:3927, 1964), where the area under the curve is proportional to the concentration of oxygen which is a limiting substrate under these conditions. […] We therefore estimated that apparent KM for O2 to be less than 2 μM. Based on the enzyme concentration (1.9-9.18 μM) and time it took to consume O2 (8.12-1.67 sec), apparent kcat can be calculated (FIG. 7).

HeLa cells = assay: Tolerability of doxycycline-inducible expression in HeLa cells; format: cell-based, human
Source text: Lentiviral infection was used to generate HeLa cells that expressed untargeted or mitochondria-targeted TPNOX (referred to as TPNOX and mitoTPNOX, respectively) under the control of a doxycycline-inducible promoter (TRE3G) (FIG. 16A).

Molecule | H2O2 relative to H2O production during catalytic cycle [1] | H2O2 produced (H2O2-forming rate compared to rate of NADH disappearance) ([1]; 350 μM NADH, 37° C., n=4) | apparent KM for O2, fold lower than the concentration of oxygen in human venous blood [2] | apparent KM for O2 expressed as % O2 ([2]; estimated from enzyme-monitored turnover) [% O2] | Km ([2]; estimated from enzyme-monitored turnover, 4° C., read-out: apparent KM for O2) [nM] | tolerability of expression (cell morphology, viability, proliferation) (HeLa cells)
LbNOX: water-forming NADH oxidase endogenous to Lactobacillus brevis; tested with C-terminal FLAG tag (protein, listed as Lactobacillus brevis, C-terminal FLAG tag) KVTVVGCTHAGTFAIKQILAEHPDAEVTVYERNDVISFLSCGIALYLGGKVADPQGLFYSSPEELQKLGANVQMNHNVLAIDPDQKTVTVEDLTNHAQTTESYDKLVMTSGSWPIVPKIPGIDSDRVKLCKNWAHAQALIEDAKEAKRITVIGAGYIGAELAEAYSTTGHDVTLIDAMARVMPKYFDADFTDVIEQDYRDHGVQLALGETVESFTDSATGLTIKTDKNSYETDLAILCIGFRPNTDLLKGKVDMAPNGAIITDDYMRSSNPDIFAAGDSAAVHYNPTHQNAYIPLATNAVRQGILVGKNLVKPTVKYMGTQSSSGLALYDRTIVSTGLTLAAAKQQGLNAEQVIVEDNYRPEFMPSTEPVLMSLVFDPDTHRILGGALMSKYDVSQSANTLSVCIQNENTIDDLAMVDMLFQPNFDRPFNYLNILAQAAQAKVAQSVNA | 1-2 % by mole | around 1.7±0.3% | more than 10 fold | ~0.17 | < 2000 | –
TPNOX: NADPH-specific quintuple mutant (G159A/D177A/A178R/M179S/P184R) of LbNOX (protein) KVTVVGCTHAGTFAIKQILAEHPDAEVTVYERNDVISFLSCGIALYLGGKVADPQGLFYSSPEELQKLGANVQMNHNVLAIDPDQKTVTVEDLTNHAQTTESYDKLVMTSGSWPIVPKIPGIDSDRVKLCKNWAHAQALIEDAKEAKRITVIGAGYIAAELAEAYSTTGHDVTLIARSARVMRKYFDADFTDVIEQDYRDHGVQLALGETVESFTDSATGLTIKTDKNSYETDLAILCIGFRPNTDLLKGKVDMAPNGAIITDDYMRSSNPDIFAAGDSAAVHYNPTHQNAYIPLATNAVRQGILVGKNLVKPTVKYMGTQSSSGLALYDRTIVSTGLTLAAAKQQGLNAEQVIVEDNYRPEFMPSTEPVLMSLVFDPDTHRILGGALMSKYDVSQSANTLSVCIQNENTIDDLAMVDMLFQPNFDRPFNYLNILAQAAQAKVAQSVNA | – | – | – | – | – | safely tolerated
